This assay deals with K63-di-Ub (UniProt P0CG47). Briefly: ITC.

“Cezanne2 UBA (1-88 aa), GST cleaved (from UniProt Q8TE49 1-88) (domain or fragment)” showed an equilibrium dissociation constant (Kd) of 20 µM. This counts as double-digit micromolar.

In the case of “Cezanne UBA (1-66 aa), GST cleaved (from UniProt Q6GQQ9 1-66) (domain or fragment)”, the Kd was 20 µM.

“Rap80 UIMs (60-144 amino acids), GST cleaved (from UniProt Q96RL1 60-144) (domain or fragment)”: the equilibrium dissociation constant (Kd) worked out at 6.4 µM.

These data come from paper PMC6942045.
